The results in this text go back to US20200087395 (published 2020).

In assay [1] the target is T1, cynomolgus CD200RLa (activating form) (cynomolgus monkey).
T1 chain: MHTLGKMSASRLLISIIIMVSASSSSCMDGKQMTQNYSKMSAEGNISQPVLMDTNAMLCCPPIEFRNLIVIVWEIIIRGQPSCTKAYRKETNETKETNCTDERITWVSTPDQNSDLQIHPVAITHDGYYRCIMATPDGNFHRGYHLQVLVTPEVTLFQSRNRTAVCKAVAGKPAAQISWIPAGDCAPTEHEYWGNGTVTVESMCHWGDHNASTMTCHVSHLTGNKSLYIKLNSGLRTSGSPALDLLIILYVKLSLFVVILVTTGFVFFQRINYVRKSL
The experiment in a line: FACS.

The target in assay [2] is T1, cynomolgus CD200RLa (activating form). The experiment in a line: SPR, 37C.
In the next assay the target is T2, mouse CD200R (mouse, UniProt Q9ES57).
T2 chain: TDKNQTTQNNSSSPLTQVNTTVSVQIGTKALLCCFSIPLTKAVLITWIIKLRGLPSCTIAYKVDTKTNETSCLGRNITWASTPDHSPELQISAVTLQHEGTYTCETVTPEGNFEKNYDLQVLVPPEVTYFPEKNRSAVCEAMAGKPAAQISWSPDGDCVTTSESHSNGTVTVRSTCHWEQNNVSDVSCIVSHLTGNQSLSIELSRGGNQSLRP
The assay can be described thus: SPR, 37C.

The next assay deals with FcγRIIIA_158F ECD (human, UniProt P08637). The experiment in a line: SPR, 25C.
Chain of FcγRIIIA_158F ECD (P08637 17-208): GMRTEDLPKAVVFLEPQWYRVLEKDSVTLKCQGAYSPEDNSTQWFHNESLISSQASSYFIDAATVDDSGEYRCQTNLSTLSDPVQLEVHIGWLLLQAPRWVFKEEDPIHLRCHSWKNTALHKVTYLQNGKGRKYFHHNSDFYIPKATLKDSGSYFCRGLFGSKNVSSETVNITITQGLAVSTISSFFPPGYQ

B1: Antibody I-4P (antibody)
chain 1: not shown
chain 2: EIVLTQSPDFQSVTPKEKVTITCQASESIDSYLLWYQQKPDQSPKLLIKQASTLASGVPSRFSGSGSGTDFTLTINSLEAEDAATYYCQNYYDISSNDFGGGTKVEIKRTVAAPSVFIFPPSDEQLKSGTASVVCLLNNFYPREAKVQWKVDNALQSGNSQESVTEQDSKDSTYSLSSTLTLSKADYEKHKVYACEVTHQGLSSPVTKSFNRGEC
modifications: listing feature
Take B1: the binding result in assay [1] is reported as “no binding”. In addition, the Kd in assay [2] is 2.5 µM; with mouse CD200R it was greater than 10 µM; with FcγRIIIA_158F ECD, greater than 10 µM.
